Literature values as cited in PMC6158072.

Tests used:
Cys = conditions: not stated (presumably the reduced thiol form)

Substance | pKa (Lys) | pKa (Cys)
Acetoacetate decarboxylase (not stated (Clostridium acetobutylicum inferred)) | around 6 | –
Peroxiredoxin 5 (Prx5) (Homo sapiens) | – | 5.5
